Results reported in patent US20150140683A1.

Experiments:
[1] = biological target: antibody captured on the human Fab capture surface (unnamed IgG); assay: SPR (BIAcore), antibody captured via human Fab capture kit, 50 nM receptor injected, 25 C
[2] = biological target: antibody captured on the human Fab capture surface (unnamed IgG); assay: SPR (BIAcore), antibody captured via human Fab capture kit, 50 nM fusion polypeptide injected, 25 C

FcgammaRIIIaV158 (intact HisAvi-tag comprising functional variant of FcgRIIIa) (receptor)
response units [1]: 40 RU

FcgammaRIIIaV158-Avi-IgA Protease-Fc LALA P329G fusion polypeptide (Fc fusion)
response units [2]: > 100 RU
